The target of test [1] is biotinylated cross-linked CA hexamer (CA A14C/E45C/W184A/M185A) (HIV-1). As to the kind of experiment: SPR; Biacore S200; biotinylated CA K158C or biotinylated CA hexamer immobilised on streptavidin-modified CM5 chip; CypA injected at 1.1-72.8 uM; 10 mM HEPES pH 8, 0.005% Tween 20, 2 mM EDTA, 150 mM NaCl; equilibrium analysis, single experiments.
For test [2], the target named is biotinylated CA K158C (unassembled HIV-1 CA) (HIV-1). The description is as above.
Test [3] addresses native HIV-1 capsid (wild type CA lattice of authentic viral cores) (HIV-1 (pNL4.3-iGFP-ΔEnv and psPAX2)). As to the kind of experiment: TIRF fluorescence microscopy binding assay.
For test [4] the target is unchanged. The test can be described thus: TIRF fluorescence microscopy binding assay. The source holds these as a separate data set.
The target in test [5] is cross-linked self-assembled CA tubes (CA A14C/E45C co-assembled with CA K158C-AF488) (HIV-1). The test can be described thus: TIRF fluorescence microscopy binding assay; cross-linked CA tubes held on the cover slip by an anti-p24 antibody; CypA 1-50 uM (1 uM AF647-CypA plus unlabelled CypA) flowed in; 50 mM Tris pH 8, 150 mM NaCl; equilibrium binding model on the CypA:CA molar ratio.

Like-named read-outs stand apart in the source and are kept apart here.

The values below come from paper PMC6449974.

As for CypA A25D (enzyme), the Kd worked out at 20.8 µM in test [1]; 22.6 µM in test [2]; 8.7 µM in test [3]; 11.2 µM in test [4]; 17.2 µM in test [5]. Moreover, the stoichiometry N in test [4] (scale: CypA loops occupied at saturation per capsid) turned out to be 877; in test [4] (scale: CypA molecules bound per capsid at saturation), 688. Moreover, the stoichiometry N (molar ratio of CypA:CA when saturated) in test [5] is 0.39.

CypA K27D (enzyme): the Kd was 21.7 µM in test [1], 28.5 µM in test [2] and 17.7 µM in test [5]. In addition, the stoichiometry N (molar ratio of CypA:CA when saturated) in test [5] was determined as 0.24.

On to CypA K30D (enzyme), for which the Kd in test [1] was determined as 35.7 µM; in test [2], 37.9 µM; in test [5], 17 µM. Further, in test [5], the stoichiometry N (molar ratio of CypA:CA when saturated) is 0.39.

Consider CypA P29K (enzyme), for which the Kd stood at 21 µM in test [1], 20.6 µM in test [2] and 16.4 µM in test [5]. Further, in test [5], the stoichiometry N (molar ratio of CypA:CA when saturated) turned out to be 0.32.
